Like-named read-outs stand apart in the source and are kept apart here.
Key:
[1] = target: integrin αIIbβ3 (Homo sapiens) (UniProt P08514); experiment: solid-phase binding; conditions: cited from earlier work
[2] = target: integrin αIIbβ3 (Homo sapiens) (UniProt P08514); experiment: SPR; conditions: cited from earlier work
[3] = target: integrin αIIbβ3 (Homo sapiens) (UniProt P08514); conditions: cited from earlier work
[4] = target: integrin αIIbβ3 (Homo sapiens) (UniProt P08514); conditions: cited from earlier work; remark: listed apart in the source
integrin αIIbβ3 (human) [5] = target: integrin αIIbβ3 (human) (UniProt P05106); experiment: ELISA
integrin αIIbβ3 (human) [6] = target: integrin αIIbβ3 (human) (UniProt P05106); experiment: SPR
integrin αIIbβ3 (human) [7] = target: integrin αIIbβ3 (human) (UniProt P05106); experiment: SPR; remark: listed apart in the source
integrin αIIbβ3 (human) [8] = target: integrin αIIbβ3 (human) (UniProt P05106); experiment: SPR; remark: listed apart in the source

fibrinogen (from UniProt P02671)
Kd [1]: 60 nM | Kd [2]: 3 nM | Kd [3]: 165 nM | Kd [4]: 50 nM

biotinylated fibrinogen (from UniProt P02671-2 36-644; P02675 45-491; P02679-2 27-437) (natural protein)
midpoint of the saturable binding profile (integrin αIIbβ3 (human) [5]): 2 nM

human fibrinogen (plasma), (AαBβγ)2 (from UniProt P02671-2 36-644; P02675 45-491; P02679-2 27-437) (natural protein)
Kd (integrin αIIbβ3 (human) [6]): 4.42 nM | koff (integrin αIIbβ3 (human) [6]): 8.41e-05 s⁻¹ | kon (integrin αIIbβ3 (human) [6]): 19000 M⁻¹ s⁻¹ | Kd (integrin αIIbβ3 (human) [7]): 3.2 nM | dH (integrin αIIbβ3 (human) [7]): -49 kJ/mol | fold slower off rate at 15 °C than at 37 °C (integrin αIIbβ3 (human) [7]): 7 fold | fold slower on rate at 15 °C than at 37 °C (integrin αIIbβ3 (human) [7]): 2 fold | fold tighter binding at 15 °C than at 37 °C (integrin αIIbβ3 (human) [7]): 4 fold | koff (integrin αIIbβ3 (human) [7]): 7.01e-05 s⁻¹ | kon (integrin αIIbβ3 (human) [7]): 21900 M⁻¹ s⁻¹

normal recombinant fibrinogen (from UniProt P02671-2 36-644; P02675 45-491; P02679-2 27-437) (natural protein)
kon (integrin αIIbβ3 (human) [7]): 21900 M⁻¹ s⁻¹

eptifibatide (peptide)
Ki (integrin αIIbβ3 (human) [7]): 0.4 nM

HHLGGAKQAGDV [synthetic γ-module peptide …]
percent reduction of the fibrinogen (100 nM) binding signal at 3 µM peptide (integrin αIIbβ3 (human) [8]): < 10%
